± gives the standard deviation of the averaged measurements.
B1: library; a variant is named by its letters at N, in order (parent)
chain: GCUGUCACCGGUGCUUGGUACGUUAUAUUCAGCCGGUCUGAUGAGUCUNNNNNNAGACGAAACAGC

How the values were obtained:
[1] = variants of: B1; experiment: normalized RNA/DNA level without ligand (relative to sTRSVctl = 100) (log10 (% of sTRSVctl)); HEK293T overexpressing SLC46A1; higher = less ribozyme self-cleavage, higher mRNA level; conditions: without (6R,S)-folinic acid; ligand present: no
Method in brief: (§1)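 Ribozyme switch library plasmids with mCherry reporters (eGFP in certain ligand experiments) went into HEK293T cells at 4 µg per 6-well well. Where ligand was used, it was applied 1 h before transfection, and total RNA was extracted with EDTA 72 h later for reverse transcription, amplification, barcoding and sequencing. RNA level is the RNA-to-DNA read ratio normalized to a spiked-in non-cleaving sequence or to the leading sequences, then scaled and log-transformed. Scaling was ×100 with log10, the leading set comprised 25 sequences, and the cutoff was ≥100 DNA reads.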

[2] = variants of: B1; experiment: normalized RNA/DNA level with ligand (relative to sTRSVctl = 100) (log10 (% of sTRSVctl)); HEK293T overexpressing SLC46A1; ligand concentration (+) RNA-Seq: 6 mM; higher = less ribozyme self-cleavage, higher mRNA level; conditions: with (6R,S)-folinic acid; ligand present: yes
Method in brief: as §1

| Variant | normalized RNA/DNA level without ligand (log10) [1] | normalized RNA/DNA level with ligand (log10) [2] |
| --- | --- | --- |
| CGCUUC | 2.1105 ± 0.0021 | 2.09 ± 0.066 |
| CGCUUG | 2.066 ± 0.018 | 2.041 ± 0.015 |
| CGCUUA | 2.002 ± 0.011 | 2.014 ± 0.019 |
| AGCGGC | 2.104 ± 0.0038 | 2.05 ± 0.039 |
| AGCGGG | 2.004 ± 0.016 | 2.055 ± 0.019 |
| AGCGGA | 2.024 ± 0.0064 | 2.024 ± 0.01 |
| CGGCGU | 2.05 ± 0.027 | 2.02 ± 0.046 |
| CGGCGG | 1.968 ± 0.0051 | 2.04 ± 0.041 |
| CGGCGC | 2.0778 ± 0.0006 | 2.05 ± 0.029 |
| CGGCGA | 2.103 ± 0.016 | 2.09 ± 0.026 |
| CGGCAA | 2.086 ± 0.0085 | 2.05 ± 0.023 |
| CGGCAC | 2.102 ± 0.011 | 2.052 ± 0.0022 |
| CGGCAG | 1.997 ± 0.0087 | 2.01 ± 0.052 |
| GGCGUG | 2.071 ± 0.0047 | 2.06 ± 0.033 |
| GGCGUA | 2.068 ± 0.004 | 2.04 ± 0.03 |
| GGCGUU | 2.08 ± 0.027 | 2.06 ± 0.034 |
| GGCGUC | 2.058 ± 0.012 | 2.01 ± 0.047 |
| CGGACG | 2.017 ± 0.012 | 2.02 ± 0.0049 |
| CGGACC | 2.072 ± 0.0055 | 2.0545 ± 0.0011 |
| CGGACU | 2.043 ± 0.0042 | 2.01 ± 0.023 |
| CGGACA | 2.037 ± 0.0086 | 2.02 ± 0.03 |
| GGCUCC | 2.0314 ± 0.0019 | 2.02 ± 0.046 |
| GGCUCG | 2.067 ± 0.014 | 2.03 ± 0.042 |
| GGCUCA | 2.073 ± 0.011 | 2.01 ± 0.033 |

| Variant | normalized RNA/DNA level without ligand (log10) [1] | normalized RNA/DNA level with ligand (log10) [2] |
| --- | --- | --- |
| GGCUCU | 2.087 ± 0.0098 | 2.05 ± 0.038 |
| UGCGAA | 1.966 ± 0.011 | 1.97 ± 0.029 |
| CGCUGU | 2.03 ± 0.038 | 2 ± 0.02 |
| CGCUGA | 2.075 ± 0.003 | 2.05 ± 0.03 |
| CGCUGG | 1.974 ± 0.0042 | 2.016 ± 0.0049 |
| CGGCUG | 2.0746 ± 0.002 | 2.04 ± 0.027 |
| CGGCUU | 2.04 ± 0.04 | 2.02 ± 0.022 |
| CGGCUA | 2.11 ± 0.027 | 2.067 ± 0.011 |
| CGGGAG | 1.932 ± 0.0051 | 2 ± 0.023 |
| GGGCUU | 2.143 ± 0.0064 | 2.1 ± 0.027 |
| GGGCUC | 2.1006 ± 0.0021 | 2.1 ± 0.021 |
| GGGCUG | 2.044 ± 0.0043 | 2.03 ± 0.046 |
| GGGCUA | 2.048 ± 0.0023 | 2.05 ± 0.033 |
| AGGAGU | 1.934 ± 0.0037 | 2.033 ± 0.014 |
| AGGAGC | 1.99 ± 0.016 | 2.01 ± 0.04 |
| AGCUUU | 2.014 ± 0.0092 | 2.016 ± 0.018 |
| AGCUUA | 1.996 ± 0.0022 | 2.01 ± 0.062 |
| AGCUUC | 2.0594 ± 0.00028 | 2.045 ± 0.011 |
| AGCGUC | 2.083 ± 0.0033 | 2.06 ± 0.037 |
| AGCGUA | 1.973 ± 0.0096 | 2 ± 0.028 |
| AGCGUG | 1.92 ± 0.023 | 2.02 ± 0.03 |
| AGCGUU | 2 ± 0.021 | 2.015 ± 0.0096 |
| GGGGAU | 2.002 ± 0.0074 | 2.03 ± 0.05 |
| GGGGAC | 1.995 ± 0.013 | 2.029 ± 0.012 |

| Variant | normalized RNA/DNA level without ligand (log10) [1] | normalized RNA/DNA level with ligand (log10) [2] |
| --- | --- | --- |
| GGGGAG | 1.9915 ± 0.00084 | 2.04 ± 0.043 |
| CGCGCC | 2.096 ± 0.0053 | 2.0477 ± 0.00068 |
| CGCGCG | 1.995 ± 0.016 | 1.95 ± 0.1 |
| CGCGCU | 2.08 ± 0.043 | 2.05 ± 0.047 |
| CGCGCA | 2.036 ± 0.014 | 2.04 ± 0.026 |
| AGCGAU | 1.982 ± 0.0033 | 2 ± 0.028 |
| AGCGAG | 1.886 ± 0.014 | 1.998 ± 0.012 |
| AGCGAA | 1.96 ± 0.014 | 2.01 ± 0.03 |
| AGCGAC | 1.99 ± 0.011 | 2.0338 ± 0.00013 |
| GGGCCA | 2.126 ± 0.019 | 2.09 ± 0.041 |
| GGGCCG | 2.091 ± 0.018 | 2.08 ± 0.047 |
| GGGCCU | 2.098 ± 0.0088 | 2.08 ± 0.036 |
| GGGCCC | 2.102 ± 0.0043 | 2.08 ± 0.039 |
| GGGCAG | 2.03 ± 0.0034 | 2.05 ± 0.057 |
| GGGCAC | 2.003 ± 0.0062 | 2.02 ± 0.041 |
| GGGCAA | 2.046 ± 0.013 | 2.05 ± 0.027 |
| GGGACC | 2.049 ± 0.0006 | 2.04 ± 0.024 |
| GGGACG | 2.039 ± 0.01 | 2.06 ± 0.051 |
| UGCUGC | 2.038 ± 0.018 | 2.01 ± 0.049 |
| UGCUGU | 2.015 ± 0.0082 | 1.995 ± 0.0073 |
| AGGCUU | 2.03 ± 0.027 | 2.04 ± 0.041 |
| AGGCUG | 2.0598 ± 0.0012 | 2.04 ± 0.0063 |
| AGCUGU | 2.039 ± 0.012 | 2.032 ± 0.016 |
| AGCUGC | 2.038 ± 0.014 | 2.05 ± 0.022 |

| Variant | normalized RNA/DNA level without ligand (log10) [1] | normalized RNA/DNA level with ligand (log10) [2] |
| --- | --- | --- |
| AGCUGG | 2.05 ± 0.0052 | 2.06 ± 0.031 |
| AGCUGA | 2.0496 ± 0.0016 | 2.028 ± 0.014 |
| UGGCUC | 2.07 ± 0.024 | 2.04 ± 0.023 |
| UGGCUA | 2.03 ± 0.013 | 2.05 ± 0.028 |
| UGGCUU | 2.021 ± 0.00062 | 2.043 ± 0.0081 |
| UGGCUG | 2.066 ± 0.0012 | 2.09 ± 0.023 |
| UGGAUA | 1.93 ± 0.022 | 1.99 ± 0.031 |
| UGGAUC | 2.039 ± 0.01 | 2.01 ± 0.032 |
| GGCUUU | 2.079 ± 0.0033 | 2.041 ± 0.013 |
| GGCUUC | 2.085 ± 0.0026 | 2.08 ± 0.067 |
| GGCUUA | 2.0768 ± 0.0012 | 2.03 ± 0.03 |
| AGCCGG | 2.068 ± 0.019 | 2.01 ± 0.045 |
| AGCCGC | 2.037 ± 0.0083 | 2.02 ± 0.044 |
| CGGAAC | 1.984 ± 0.0056 | 2 ± 0.034 |
| CGGAAA | 1.9343 ± 0.0017 | 1.98 ± 0.045 |
| CGGAAG | 1.94 ± 0.021 | 1.98 ± 0.028 |
| AGCCUC | 2.049 ± 0.012 | 2.03 ± 0.029 |
| AGCCUU | 2.0374 ± 0.0006 | 2.02 ± 0.037 |
| AGCUAC | 2.029 ± 0.012 | 2.01 ± 0.063 |
| AGCUAA | 2 ± 0.033 | 1.999 ± 0.0025 |
| AGCUAU | 1.987 ± 0.014 | 2.009 ± 0.018 |
| AGCUAG | 1.935 ± 0.002 | 2.01 ± 0.025 |
| GGCGCC | 2.093 ± 0.017 | 2.07 ± 0.023 |
| GGCGCU | 2.113 ± 0.014 | 2.1 ± 0.057 |

| Variant | normalized RNA/DNA level without ligand (log10) [1] | normalized RNA/DNA level with ligand (log10) [2] |
| --- | --- | --- |
| GGCGCG | 2.085 ± 0.011 | 2.06 ± 0.05 |
| GGCGCA | 2.06 ± 0.0043 | 2.051 ± 0.019 |
| UGCUAC | 2.021 ± 0.0079 | 2.02 ± 0.071 |
| UGCUAU | 1.994 ± 0.0055 | 2.05 ± 0.03 |
| UGCGCC | 2.07 ± 0.015 | 2.043 ± 0.0087 |
| UGCGCG | 1.81 ± 0.046 | 1.99 ± 0.056 |
| UGCGCA | 1.951 ± 0.002 | 1.98 ± 0.033 |
| AGGCAG | 1.965 ± 0.0036 | 1.99 ± 0.053 |
| AGGGAA | 1.965 ± 0.0039 | 2.01 ± 0.025 |
| AGGGAU | 1.949 ± 0.0057 | 1.98 ± 0.031 |
| CGGAUU | 2.031 ± 0.015 | 2.02 ± 0.045 |
| CGGAUC | 2.085 ± 0.011 | 2.034 ± 0.003 |
| UGGACU | 2.006 ± 0.0056 | 2.01 ± 0.023 |
| CGCUCU | 2.1 ± 0.033 | 2.06 ± 0.033 |
| CGCUCC | 2.082 ± 0.015 | 2.057 ± 0.017 |
| CGCUCA | 2.05 ± 0.022 | 2.038 ± 0.008 |
| CGCUCG | 2.047 ± 0.0074 | 2.018 ± 0.015 |
| GGCCGG | 2.08 ± 0.021 | 2.051 ± 0.015 |
| GGCCGU | 2.0789 ± 0.0012 | 2.02 ± 0.007 |
| GGCCGC | 2.073 ± 0.012 | 2.083 ± 0.011 |
